Laboratory results published in paper PMC10268231 (Nature, 2021).

T1: PRIM2 (human, UniProt P49643-1 1-509)
T1 sequence (looked up): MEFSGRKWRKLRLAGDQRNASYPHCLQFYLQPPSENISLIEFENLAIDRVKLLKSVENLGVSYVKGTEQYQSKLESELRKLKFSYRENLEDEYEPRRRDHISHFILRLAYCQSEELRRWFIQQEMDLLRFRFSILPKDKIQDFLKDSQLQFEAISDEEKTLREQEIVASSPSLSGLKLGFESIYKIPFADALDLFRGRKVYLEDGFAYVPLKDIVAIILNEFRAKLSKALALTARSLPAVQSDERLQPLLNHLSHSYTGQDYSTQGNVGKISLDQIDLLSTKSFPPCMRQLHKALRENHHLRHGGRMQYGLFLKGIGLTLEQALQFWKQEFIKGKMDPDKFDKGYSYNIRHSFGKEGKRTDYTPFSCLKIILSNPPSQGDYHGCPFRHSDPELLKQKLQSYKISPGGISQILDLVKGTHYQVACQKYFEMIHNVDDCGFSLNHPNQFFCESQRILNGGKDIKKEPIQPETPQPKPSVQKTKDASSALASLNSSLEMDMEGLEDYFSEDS

T2: POLA1 (human, UniProt P09884 1-1462)
T2 sequence (looked up): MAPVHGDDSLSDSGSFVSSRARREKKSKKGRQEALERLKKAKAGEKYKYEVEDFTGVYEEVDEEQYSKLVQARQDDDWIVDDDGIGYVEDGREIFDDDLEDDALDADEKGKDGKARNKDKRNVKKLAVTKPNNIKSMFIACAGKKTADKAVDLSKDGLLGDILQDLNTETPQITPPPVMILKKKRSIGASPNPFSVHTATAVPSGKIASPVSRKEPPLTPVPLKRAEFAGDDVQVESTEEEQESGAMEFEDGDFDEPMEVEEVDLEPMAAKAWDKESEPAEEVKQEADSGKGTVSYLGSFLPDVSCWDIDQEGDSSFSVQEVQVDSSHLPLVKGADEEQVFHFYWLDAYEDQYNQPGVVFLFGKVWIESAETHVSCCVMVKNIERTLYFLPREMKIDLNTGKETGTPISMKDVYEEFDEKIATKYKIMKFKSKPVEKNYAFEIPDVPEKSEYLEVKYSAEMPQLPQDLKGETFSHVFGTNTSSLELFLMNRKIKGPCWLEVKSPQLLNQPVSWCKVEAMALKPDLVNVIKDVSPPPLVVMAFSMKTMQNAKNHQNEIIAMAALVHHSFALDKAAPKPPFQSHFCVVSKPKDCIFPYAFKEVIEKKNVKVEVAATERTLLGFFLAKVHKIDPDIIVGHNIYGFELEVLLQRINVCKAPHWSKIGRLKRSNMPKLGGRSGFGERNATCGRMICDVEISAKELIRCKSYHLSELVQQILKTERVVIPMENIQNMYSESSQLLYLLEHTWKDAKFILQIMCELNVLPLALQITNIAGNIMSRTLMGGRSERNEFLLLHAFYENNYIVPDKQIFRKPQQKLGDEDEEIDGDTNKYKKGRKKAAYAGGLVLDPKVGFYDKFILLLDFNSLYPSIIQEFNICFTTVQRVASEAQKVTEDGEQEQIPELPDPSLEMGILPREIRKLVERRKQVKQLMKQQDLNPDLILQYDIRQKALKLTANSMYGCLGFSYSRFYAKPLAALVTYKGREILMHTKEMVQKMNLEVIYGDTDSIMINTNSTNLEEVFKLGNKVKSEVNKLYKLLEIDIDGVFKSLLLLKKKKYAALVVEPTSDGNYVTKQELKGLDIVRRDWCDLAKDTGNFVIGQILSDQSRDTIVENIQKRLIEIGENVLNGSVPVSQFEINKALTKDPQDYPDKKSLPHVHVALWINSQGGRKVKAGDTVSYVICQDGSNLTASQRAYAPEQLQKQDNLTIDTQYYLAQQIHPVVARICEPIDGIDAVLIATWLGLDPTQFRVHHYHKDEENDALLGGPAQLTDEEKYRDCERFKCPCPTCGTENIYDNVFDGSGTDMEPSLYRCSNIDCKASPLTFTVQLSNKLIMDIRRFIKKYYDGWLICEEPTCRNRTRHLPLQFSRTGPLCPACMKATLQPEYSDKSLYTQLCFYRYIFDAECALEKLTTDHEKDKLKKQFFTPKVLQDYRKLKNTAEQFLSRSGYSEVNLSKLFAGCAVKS

B1: PRIM1 (natural protein, human)
chain: ETFDPTELPELLKLYYRRLFPYSQYYRWLNYGGVIKNYFQHREFSFTLKDDIYIRYQSFNNQSDLEKEMQKMNPYKIDIGAVYSHRPNQHNTVKLGAFQAQEKELVFDIDMTDYDDVRRCCSSADICPKCWTLMTMAIRIIDRALKEDFGFKHRLWVYSGRRGVHCWVCDESVRKLSSAVRSGIVEYLSLVKGGQDVKKKVHLSEKIHPFIRKSINIIKKYFEEYALVNQDILENKESWDKILALVPETIHDELQQSFQKSHNSLQRWEHLKKVASRYQNNIKNDKYGPWLEWEIMLQYCFPRLDINVSKGINHLLKSPFSVHPKTGRISVPIDLQKVDQFDPFTVPTISFICRELDAISTNEEEKEENEAESDVKHRTRDYKKTSLAPYVKVFEHFLENLDKSRKGELLKKSDLQKDF
B2: CTC1 (natural protein, human, UniProt Q2NKJ3 1-1217, looked up)
chain: MAAGRAQVPSSEQAWLEDAQVFIQKTLCPAVKEPNVQLTPLVIDCVKTVWLSQGRNQGSTLPLSYSFVSVQDLKTHQRLPCCSHLSWSSSAYQAWAQEAGPNGNPLPREQLLLLGTLTDLSADLEQECRNGSLYVRDNTGVLSCELIDLDLSWLGHLFLFPRWSYLPPARWNSSGEGHLELWDAPVPVFPLTISPGPVTPIPVLYPESASCLLRLRNKLRGVQRNLAGSLVRLSALVKSKQKAYFILSLGRSHPAVTHVSIIVQVPAQLVWHRALRPGTAYVLTELRVSKIRGQRQHVWMTSQSSRLLLLKPECVQELELELEGPLLEADPKPLPMPSNSEDKKDPESLVRYSRLLSYSGAVTGVLNEPAGLYELDGQLGLCLAYQQFRGLRRVMRPGVCLQLQDVHLLQSVGGGTRRPVLAPCLRGAVLLQSFSRQKPGAHSSRQAYGASLYEQLVWERQLGLPLYLWATKALEELACKLCPHVLRHHQFLQHSSPGSPSLGLQLLAPTLDLLAPPGSPVRNAHNEILEEPHHCPLQKYTRLQTPSSFPTLATLKEEGQRKAWASFDPKALLPLPEASYLPSCQLNRRLAWSWLCLLPSAFCPAQVLLGVLVASSHKGCLQLRDQSGSLPCLLLAKHSQPLSDPRLIGCLVRAERFQLIVERDVRSSFPSWKELSMPGFIQKQQARVYVQFFLADALILPVPRPCLHSATPSTPQTDPTGPEGPHLGQSRLFLLCHKEALMKRNFCVPPGASPEVPKPALSFYVLGSWLGGTQRKEGTGWGLPEPQGNDDNDQKVHLIFFGSSVRWFEFLHPGQVYRLIAPGPATPMLFEKDGSSCISRRPLELAGCASCLTVQDNWTLELESSQDIQDVLDANKSLPESSLTDLLSDNFTDSLVSFSAEILSRTLCEPLVASLWMKLGNTGAMRRCVKLTVALETAECEFPPHLDVYIEDPHLPPSLGLLPGARVHFSQLEKRVSRSHNVYCCFRSSTYVQVLSFPPETTISIPLPHIYLAELLQGGQSPFQATASCHIVSVFSLQLFWVCAYCTSICRQGKCTRLGSTCPTQTAISQAIIRLLVEDGTAEAVVTCRNHHVAAALGLCPREWASLLDFVQVPGRVVLQFAGPGAQLESSARVDEPMTMFLWTLCTSPSVLRPIVLSFELERKPSKIVPLEPPRLQRFQCGELPFLTHVNPRLRLSCLSIRESEYSSSLGILASSC
B3: CTC1–STN1–TEN1 (CST) complex (complex, human)
chain 1: B2 chain
chain 2: QPGSSRCEEETPSLLWGLDPVFLAFAKLYIRDILDMKESRQVPGVFLYNGHPIKQVDVLGTVIGVRERDAFYSYGVDDSTGVINCICWKKLNTESVSAAPSAARELSLTSQLKKLQETIEQKTKIEIGDTIRVRGSIRTYREEREIHATTYYKVDDPVWNIQIARMLELPTIYRKVYDQPFHSSALEKEEALSNPGALDLPSLTSLLSEKAKEFLMENRVQSFYQQELEMVESLLSLANQPVIHSASSDQVNFKKDTTSKAIHSIFKNAIQLLQEKGLVFQKDDGFDNLYYVTREDKDLHRKIHRIIQQDCQKPNHMEKGCHFLHILACARLSIRPGLSEAVLQQVLELLEDQSDIVSTMEHYYTAF
chain 3: LPKPGTYYLPWEVSAGQVPDGSTLRTFGRLCLYDMIQSRVTLMAQHGSDQHQVLVCTKLVEPFHAQVGSLYIVLGELQHQQDRGSVVKARVLTCVEGMNLPLLEQAIREQRLYKQERGGSQ
B4: STN1 (natural protein, human)
chain: B3 chain 2

Key:
Assay in all cases: cryo-EM structure
PRIM2 = biological target: T1, PRIM2
POLA1 = biological target: T2, POLA1
[1] = biological target: DNA polymerase-α–primase (Polα–primase) complex, PRIM1–PRIM2–POLA1–POLA2, full-length (human, UniProt P09884 1-1462; Q14181-1 1-598; P49642 2-420; P49643-1 1-509)
Chain of DNA polymerase-α–primase (Polα–primase) complex, PRIM1–PRIM2–POLA1–POLA2, full-length (Q14181 whole entry, one chain of several): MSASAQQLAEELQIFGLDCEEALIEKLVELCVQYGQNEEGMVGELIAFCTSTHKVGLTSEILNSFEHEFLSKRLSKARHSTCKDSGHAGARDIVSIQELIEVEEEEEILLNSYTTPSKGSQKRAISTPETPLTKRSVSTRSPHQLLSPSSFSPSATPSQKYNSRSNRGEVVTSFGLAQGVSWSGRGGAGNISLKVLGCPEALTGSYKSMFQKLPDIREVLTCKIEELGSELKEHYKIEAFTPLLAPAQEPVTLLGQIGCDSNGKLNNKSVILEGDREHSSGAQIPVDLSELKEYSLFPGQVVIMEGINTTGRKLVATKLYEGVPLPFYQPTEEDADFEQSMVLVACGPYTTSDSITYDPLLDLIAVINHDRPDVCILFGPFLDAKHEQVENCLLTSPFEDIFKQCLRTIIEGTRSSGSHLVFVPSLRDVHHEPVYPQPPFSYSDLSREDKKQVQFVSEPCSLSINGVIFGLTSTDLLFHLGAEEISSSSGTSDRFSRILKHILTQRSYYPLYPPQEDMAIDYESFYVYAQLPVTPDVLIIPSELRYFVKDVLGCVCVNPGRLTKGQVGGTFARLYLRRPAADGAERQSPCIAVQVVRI

PRIM1 = biological target: B1

**Q.** Does B1 bind (PRIM2)?
**A.** binds

**Q.** Does B2 bind (POLA1)?
**A.** binds

**Q.** How did the “stoichiometry N” value [1] turn out when B3 was run?
**A.** 1

**Q.** Does B4 bind (PRIM1)?
**A.** binds
